T1: cynoNectin4-mFc (cyno, UniProt A0A2K5WES1 32-349)
T1 construct: Immobilized on the SPR chip; also called cyanoNectin4; not shown: mFc (mouse Fc)
T1 sequence: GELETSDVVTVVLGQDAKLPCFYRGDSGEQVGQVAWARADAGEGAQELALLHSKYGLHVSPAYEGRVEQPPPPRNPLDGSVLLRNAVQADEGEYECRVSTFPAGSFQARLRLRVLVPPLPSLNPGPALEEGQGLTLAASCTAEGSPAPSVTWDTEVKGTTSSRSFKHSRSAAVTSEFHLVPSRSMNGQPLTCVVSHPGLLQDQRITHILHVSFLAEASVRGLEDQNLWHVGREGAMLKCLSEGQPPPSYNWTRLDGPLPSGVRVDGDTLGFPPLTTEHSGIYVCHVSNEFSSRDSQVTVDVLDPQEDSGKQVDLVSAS

T2: recombinant human Nectin4 antigen (human, UniProt Q96NY8 32-349)
T2 construct: construct not described
T2 sequence (looked up): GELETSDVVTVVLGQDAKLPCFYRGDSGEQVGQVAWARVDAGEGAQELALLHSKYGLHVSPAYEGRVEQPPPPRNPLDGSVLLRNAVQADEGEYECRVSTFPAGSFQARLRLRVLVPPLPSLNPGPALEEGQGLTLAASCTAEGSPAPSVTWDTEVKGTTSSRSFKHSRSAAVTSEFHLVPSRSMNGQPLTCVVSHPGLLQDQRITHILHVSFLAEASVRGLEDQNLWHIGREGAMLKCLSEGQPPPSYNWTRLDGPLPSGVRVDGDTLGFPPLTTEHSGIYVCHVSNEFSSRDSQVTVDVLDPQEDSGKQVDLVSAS


Tests used:
cynoNectin4-mFc = target: T1, cynoNectin4-mFc; assay: SPR, cynoNectin4-mFc immobilized, pH 7.4
Description: Binding kinetics of anti-Nectin4 antibodies were measured by surface plasmon resonance using a SPR2/4 instrument (Sierra Sensors, Hamburg, Germany) and flat amine sensor chips. The SPR sensor contained four flow cells (FC1-FC4), each of which was addressed individually or in groups. huNectin4-His was immobilized in FC2, and cynoNectin4-mFc in FC4. No protein was immobilized in FC1 and FC3 which were used as control surfaces for FC2 and FC4, respectively.
All injections were done at a flow rate of 25 μL/min at 25° C. The sensor surface was activated with 1-ethyl-3-(3-dimethylaminopropyl)-carbodiimide (EDC) and N-hydroxysuccinimide (NHS) (200 mM/50 mM) for 480 seconds. HuNectin4-His (2 μg/mL in 10 mM NaAc, pH4.5) was injected for 480s and the surface was inactivated by injecting 1M ethanolamine-HCl for 480s. CynoNectin4 was immobilized using the same conditions as described for huNectin4-His, except that the cynoNectin4 was diluted into 10 mM NaAc buffer having pH 5.0. The control surface was activated and deactivated using the same conditions, but without injecting protein. PBST buffer (PBS pH 7.4 with 0.05% TWEEN20™) was used as running buffer for the surface preparation. The running solution was switched to PBST with 30 mM sodium bicarbonate with the pH adjusted as indicated in the figures before the analyte injections. The instrument was equilibrated with the running solution for one hour before the first analyte injection.
The off-rate was measured for 360s. The chip surface was regenerated after each cycle of interaction analysis by injecting 6 μL of 10 mM glycine (pH 2.0). Flow cells 1 and 3 without immobilized protein were used as control surfaces for reference subtraction.

[1] = target: T2, recombinant human Nectin4 antigen; assay: pH range ELISA, 30 ng/mL, pH of 50% binding activity
Description: 1) Coat ELISA plates with 100 μL of 1 μg/mL recombinant human Nectin4 antigen in carbonate-bicarbonate coating buffer [0462] 2) Cover plates with sealing film and incubate overnight at 4° C. […] 3) Decant plates and tap out residual liquid on a stack of paper towels [0464] 4) Wash wells twice by dispensing 200 μL of various pH incubation buffer to the wells and completely aspirate the contents [0465] 5) Add 200 μL of various pH incubation buffers (pH5.5, 6.0, 6.2, 6.5, 6.7, 7.0 and 7.4) to the wells. Cover with sealing film and place the plate onto a plate shaker (set to 200 rpm) for 60 minutes at room temperature [0466] 6) Decant plates and tap out residual liquid on a stack of paper towels [0467] 7) Serially dilute test substances in various pH incubation buffers (pH5.5, 6.0, 6.2, 6.5, 6.7, 7.0 and 7.4) to 30 ng/mL [0468] 8) Add 100 μL/well of diluted test substances to the plates [0469] 9) Cover with sealing film and place the plates onto a plate shaker (set to 200 rpm) for 60 minutes at room temperature. [0470] 10) Decant plates and tap out residual liquid on a stack of paper towels. […] 12) Dilute the HRP secondary antibody at 1:2500 in various pH incubation buffers (pH5.5, 6.0, 6.2, 6.5, 6.7, 7.0 and 7.4) [0473] 13) Add 100 μL HRP secondary antibody diluted in various pH incubation buffers (pH5.5, 6.0, 6.2, 6.5, 6.7, 7.0 and 7.4) to each well. […] 14) Cover with sealing film and place the plates onto a plate shaker (set to 200 rpm) for 60 minutes at room temperature. [0475] 15) Decant plates and tap out residual liquid on a stack of paper towels. […] 16) Wash wells three times by dispensing 200 μL of various pH wash buffer (pH5.5, 6.0, 6.2, 6.5, 6.7, 7.0 and 7.4) to the wells and completely aspirating the contents [0477] 17) Dispense 50 μL per well of the TMB substrate solution into all wells of plates.

| Binder | Kd (cynoNectin4-mFc) | pH inflection point [1] | koff (cynoNectin4-mFc) | kon (cynoNectin4-mFc) |
| --- | --- | --- | --- | --- |
| BAP-143-wildtype (antibody, V domains shown, 150 kDa used in SPR; also called BAP143-00-00; benchmark (BM)) VH: EVQLVESGGGLVQPGGSLRLSCAASGFTFSSYNMNWVRQAPGKGLEWVSYISSSSSTIYYADSVKGRFTISRDNAKNSLSLQMNSLRDEDTAVYYCARAYYYGMDVWGQGTTVTVSS VL: DIQMTQSPSSVSASVGDRVTITCRASQGISGWLAWYQQKPGKAPKFLIYAASTLQSGVPSRFSGSGSGTDFTLTISSLQPEDFATYYCQQANSFPPTFGGGTKVEIK | 0.244 nM | – | – | – |
| BAP-143-06-33-03 (antibody, V domains shown, Used as a conjugate with a linker payload (CAB ADC)) VH: QVQLVQSGAEVKKPGASVKVSCKASGFTFSSYNMNWVRQARGQRLEWIGYISSSSSTIYYADSVKGRFTISRDNSKNTLYLQMNSLRAEDTAVYYCARAYYYGMDKWGQGTLVTVSS VL: DIQMTQSPSSVSASVGDRVTITCRASQGISGWLAWYQQKPGKAPKFLIYAASTLQSGVPSRFSGSGSGTDFTLTISSLQPEDFATYYCQQANSEPPTFGGGTKVEIK | – | 6.85 pH | – | – |
| BAP-143-06-24-16 (antibody, V domains shown, Used as a conjugate with a linker payload (CAB ADC)) VH: EVQLVQSGAEVKKPGATVKISCKVSGFTFSSYNMNWIRQSPSRGLEWLGYISSSSSTIYYADSVKGRFTISRDNSKNTLYLQMNSLRAEDTAVYYCARAYYYGDDVWGQGTLVTVSS VL: DIQMTQSPSSVSASVGDRVTITCHASQGISGWLAWYQQKPGKAPKFLIYAASTLQSGVPSRFSGSGSGTDFTLTISSLQPEDFATYYCQQANSFPPTFGGGTKVEIK | 0.126 nM | – | 8.26e-05 s⁻¹ | 655000 M⁻¹ s⁻¹ |
| BAP-143-00-01 (antibody, V domains shown, Used as a conjugate with a linker payload (CAB ADC)) VH: EVQLVESGGGLVQPGGSLRLSCAASGFTFSSYNMNWVRQAPGKGLEWVSYISSSSSTIYYADSVKGRFTISRDNAKNSLSLQMNSLRDEDTAVYYCARAYYYGMDVWGQGTTVTVSS VL: DIQMTQSPSSVSASVGDRVTITCRASQGISGWEAWYQQKPGKAPKFLIYAASTLQSGVPSRFSGSGSGTDFTLTISSLQPEDFATYYCQQANSFPPTFGGGTKVEIK | 3.25 nM | 6.58 pH | 0.000781 s⁻¹ | 240000 M⁻¹ s⁻¹ |

The remaining lines, values ahead:

| Kd (cynoNectin4-mFc) | pH inflection point [1] | koff (cynoNectin4-mFc) | kon (cynoNectin4-mFc) | Binder |
| --- | --- | --- | --- | --- |
| 1.85 nM | 6.51 pH | 0.000651 s⁻¹ | 352000 M⁻¹ s⁻¹ | BAP-143-07-03-12 (antibody, V domains shown, Used as a conjugate with a linker payload (CAB ADC)) VH: EVQLVESGGGLVQPGGSLRLSCAASGFTFSSYNMNWVRQAPGKGLEWVSYISSSSSTIYYADSVKGRFTISRDNAKNSLSLQMNSLRDEDTAVYYCARAYYYGMDKWGQGTTVTVSS VL: DIQMTQSPSSVSASVGDRVTITCRASQGISGWEAWYQQKPGKAPKFLIYAASTLQSGVPSRFSGSGSGTDFTLTISSLQPEDFATYYCQQANSFPPTFGGGTKVEIK |
| 2.37 nM | 6.6 pH | 0.000175 s⁻¹ | 73900 M⁻¹ s⁻¹ | BAP-143-06-33-16 (antibody, V domains shown, Used as a conjugate with a linker payload (CAB ADC)) VH: EVQLVQSGAEVKKPGATVKISCKVSGFTFSSYNMNWIRQSPSRGLEWLGYISSSSSTIYYADSVKGRFTISRDNSKNTLYLQMNSLRAEDTAVYYCARAYYYGDDVWGQGTLVTVSS VL: DIQMTQSPSSVSASVGDRVTITCRASQGISGWEAWYQQKPGKAPKFLIYAASTLQSGVPSRFSGSGSGTDFTLTISSLQPEDFATYYCQQANSFPPTFGGGTKVEIK |

Source: US20230235054A1 (BIOATLA, published 2023)
